# Data reported in IntAct's records for PubMed 29892012.
# B1: Protein VAC14 homolog (Homo sapiens), Q08AM6 (parent)
# chain: MNPEKDFAPLTPNIVRALNDKLYEKRKVAALEIEKLVREFVAQNNTVQIKHVIQTLSQEFALSQHPHSRKGGLIGLAACSIALGKDSGLYLKELIEPVLTCFNDADSRLRYYACEALYNIVKVARGAVLPHFNVLFDGLSKLAADPDPNVKSGSELLDRLLKDIVTESNKFDLVSFIPLLRERIYSNNQYARQFIISWILVLESVPDINLLDYLPEILDGLFQILGDNGKEIRKMCEVVLGEFLKEIKKNPSSVKFAEMANILVIHCQTTDDLIQLTAMCWMREFIQLAGRVMLPYSSGILTAVLPCLAYDDRKKSIKEVANVCNQSLMKLVTPEDDELDELRPGQRQAEPTPDDALPKQEGTASGGPDGSCDSSFSSGISVFTAASTERAPVTLHLDGIVQVLNCHLSDTAIGMMTRIAVLKWLYHLYIKTPRKMFRHTDSLFPILLQTLSDESDEVILKDLEVLAEIASSPAGQTDDPGPLDGPDLQASHSELQVPTPGRAGLLNTSGTKGLECSPSTPTMNSYFYKFMINLLKRFSSERKLLEVRGPFIIRQLCLLLNAENIFHSMADILLREEDLKFASTMVHALNTILLTSTELFQLRNQLKDLKTLESQNLFCCLYRSWCHNPVTTVSLCFLTQNYRHAYDLIQKFGDLEVTVDFLAEVDKLVQLIECPIFTYLRLQLLDVKNNPYLIKALYGLLMLLPQSSAFQLLSHRLQCVPNPELLQTEDSLKAAPKSQKADSPSIDYAELLQHFEKVQNKHLEVRHQRSGRGDHLDRRVVL
# partner: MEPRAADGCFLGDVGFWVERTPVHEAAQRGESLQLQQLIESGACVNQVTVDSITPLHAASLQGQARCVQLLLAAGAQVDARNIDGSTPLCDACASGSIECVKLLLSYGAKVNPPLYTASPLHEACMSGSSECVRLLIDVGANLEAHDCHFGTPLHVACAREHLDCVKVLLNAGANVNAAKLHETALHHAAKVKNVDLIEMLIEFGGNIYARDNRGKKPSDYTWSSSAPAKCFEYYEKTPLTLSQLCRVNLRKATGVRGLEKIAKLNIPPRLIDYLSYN
# B2: Inositol polyphosphate 5-phosphatase K (Homo sapiens), Q9BT40 (parent)
# chain: MSSRKLSGPKGRRLSIHVVTWNVASAAPPLDLSDLLQLNNRNLNLDIYVIGLQELNSGIISLLSDAAFNDSWSSFLMDVLSPLSFIKVSHVRMQGILLLVFAKYQHLPYIQILSTKSTPTGLFGYWGNKGGVNICLKLYGYYVSIINCHLPPHISNNYQRLEHFDRILEMQNCEGRDIPNILDHDLIIWFGDMNFRIEDFGLHFVRESIKNRCYGGLWEKDQLSIAKKHDPLLREFQEGRLLFPPTYKFDRNSNDYDTSEKKRKPAWTDRILWRLKRQPCAGPDTPIPPASHFSLSLRGYSSHMTYGISDHKPVSGTFDLELKPLVSAPLIVLMPEDLWTVENDMMVSYSSTSDFPSSPWDWIGLYKVGLRDVNDYVSYAWVGDSKVSCSDNLNQVYIDISNIPTTEDEFLLCYYSNSLRSVVGISRPFQIPPGSLREDPLGEAQPQI
# B3: Casein kinase II subunit alpha (Homo sapiens), P68400 (parent)
# chain: MSGPVPSRARVYTDVNTHRPREYWDYESHVVEWGNQDDYQLVRKLGRGKYSEVFEAINITNNEKVVVKILKPVKKKKIKREIKILENLRGGPNIITLADIVKDPVSRTPALVFEHVNNTDFKQLYQTLTDYDIRFYMYEILKALDYCHSMGIMHRDVKPHNVMIDHEHRKLRLIDWGLAEFYHPGQEYNVRVASRYFKGPELLVDYQMYDYSLDMWSLGCMLASMIFRKEPFFHGHDNYDQLVRIAKVLGTEDLYDYIDKYNIELDPRFNDILGRHSRKRWERFVHSENQHLVSPEALDFLDKLLRYDHQSRLTAREAMEHPYFYTVVKDQARMGSSSMPGGSTPVSSANMMSGISSVPTPSPLGPLAGSPVIAAANPLGMPVPAAAGAQQ
# B4: Keratin, type I cuticular Ha8 (Homo sapiens), O76015 (parent)
# chain: MTSSYSSSSCPLGCTMAPGARNVSVSPIDIGCQPGAEANIAPMCLLANVAHANRVRVGSTPLGRPSLCLPPTCHTACPLPGTCHIPGNIGICGAYGENTLNGHEKETMQFLNDRLANYLEKVRQLEQENAELEATLLERSKCHESTVCPDYQSYFHTIEELQQKILCSKAENARLIVQIDNAKLAADDFRIKLESERSLRQLVEADKCGTQKLLDDATLAKADLEAQQESLKEEQLSLKSNHEQEVKILRSQLGEKLRIELDIEPTIDLNRVLGEMRAQYEAMLETNRQDVEQWFQAQSEGISLQDMSCSEELQCCQSEILELRCTVNALEVERQAQHTLKDCLQNSLCEAEDRFGTELAQMQSLISNVEEQLSEIRADLERQNQEYQVLLDVKTRLENEIATYRNLLESEDCKLPCNPCSTSPSCVTAPCAPRPSCGPCTTCGPTCGASTTGSRF
# partner: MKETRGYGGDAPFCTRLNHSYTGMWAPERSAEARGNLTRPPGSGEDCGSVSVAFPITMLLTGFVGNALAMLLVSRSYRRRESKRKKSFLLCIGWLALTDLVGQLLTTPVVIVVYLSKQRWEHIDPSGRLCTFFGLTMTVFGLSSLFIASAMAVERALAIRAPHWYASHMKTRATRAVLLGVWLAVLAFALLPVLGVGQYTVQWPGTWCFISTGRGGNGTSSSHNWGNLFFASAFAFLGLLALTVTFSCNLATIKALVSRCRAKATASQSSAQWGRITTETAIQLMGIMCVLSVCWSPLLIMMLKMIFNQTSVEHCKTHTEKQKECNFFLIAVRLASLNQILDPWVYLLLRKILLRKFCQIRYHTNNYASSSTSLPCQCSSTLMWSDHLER
# B5: Syntaxin-3 (Homo sapiens), Q13277 (parent)
# chain: MKDRLEQLKAKQLTQDDDTDAVEIAIDNTAFMDEFFSEIEETRLNIDKISEHVEEAKKLYSIILSAPIPEPKTKDDLEQLTTEIKKRANNVRNKLKSMEKHIEEDEVRSSADLRIRKSQHSVLSRKFVEVMTKYNEAQVDFRERSKGRIQRQLEITGKKTTDEELEEMLESGNPAIFTSGIIDSQISKQALSEIEGRHKDIVRLESSIKELHDMFMDIAMLVENQGEMLDNIELNVMHTVDHVEKARDETKKAVKYQSQARKKLIIIIVLVVVLLGILALIIGLSVGLN
# Variants of: B1
# Conditions: with asb13_human ASB13, Q8WXK3
row,Variant,effect of a mutation on the interaction
1,A127S,with no effect

# Variants of: B2
# Conditions: with ar6p1_human ARL6IP1, Q15041
# Chain of ar6p1_human ARL6IP1, Q15041 (Q15041 whole entry): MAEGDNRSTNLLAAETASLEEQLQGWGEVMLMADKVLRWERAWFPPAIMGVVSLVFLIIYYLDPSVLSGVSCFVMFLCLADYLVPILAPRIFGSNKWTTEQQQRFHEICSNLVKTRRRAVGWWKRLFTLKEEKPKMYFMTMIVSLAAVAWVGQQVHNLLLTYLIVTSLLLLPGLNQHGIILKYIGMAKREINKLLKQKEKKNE
row,Variant,effect of a mutation on the interaction
1,R437K,with no effect

# Variants of: B3
# Conditions: with nfya_human NFYA
row,Variant,effect of a mutation on the interaction
1,K198R,with no effect

# Variants of: B4
# Conditions: with pe2r3_human PTGER3, P43115
row,Variant,effect of a mutation on the interaction
1,N270K,with no effect

# Variants of: B4
# Conditions: with pe2r3_human PTGER3, P43115
# Remark: another data set of the same source
row,Variant,effect of a mutation on the interaction
1,D306A,with no effect

# Variants of: B5
# Conditions: with stx4_human STX4, Q12846
# Chain of stx4_human STX4, Q12846 (Q12846 whole entry): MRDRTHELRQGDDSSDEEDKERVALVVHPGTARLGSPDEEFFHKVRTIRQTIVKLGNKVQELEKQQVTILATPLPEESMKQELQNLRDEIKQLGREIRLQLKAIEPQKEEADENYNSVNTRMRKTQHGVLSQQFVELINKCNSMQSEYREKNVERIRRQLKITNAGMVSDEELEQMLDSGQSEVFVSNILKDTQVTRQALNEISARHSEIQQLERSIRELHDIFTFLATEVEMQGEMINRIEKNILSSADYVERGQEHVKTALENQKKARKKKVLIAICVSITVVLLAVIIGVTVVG
row,Variant,effect of a mutation on the interaction
1,K199E,with no effect
